The target of this experiment is HER2 (human epidermal growth factor receptor 2) (human) (UniProt P04626). The experiment is described as follows: cell-based or functional assay.

“CasMab250 (H/L)-based CAR with medium spacer (IgG4 hinge & CH3 domain) and CD28-CD3ζ1XX intracellular signaling domains” came in with a maximal cytolysis of SKOV3 tumor cells (xCELLigence, donor T cells, E:T 1:1) of 90%.
